The source of these data is patent US20100322935A1 (Hoffmann-La Roche, published 2010).

Where only a bound is given, the exact number is not on record here.

Test [1] deals with T1, human VEGF165/VEGF121-His (human, UniProt P15692-4 27-191, limits assumed).
T1 construct: R&D Systems or in house purified; also called VEGF-A; hVEGF
Nature of the test: SPR (Biacore T100). The source says:
(§1) Briefly, for affinity measurements Goat-Anti-Human IgG, JIR 109-005-098 antibodies were immobilized on a CM5 chip via amine coupling for presentation of the antibodies against human ECD-Fc tagged. […] Biacore T100 Evaluation Software version 1.1.1 was used for analysis of sensorgrams and for calculation of affinity data.
(§2) Binding of the generated antibodies to human ANGPT2 and VEGF was also investigated by surface plasmon resonance using a BIACORE T100 instrument (GE Healthcare Biosciences AB, Uppsala, Sweden). Briefly, for affinity measurements goat<hIgG-Fcg> polyclonal antibodies were immobilized on a CM5 or CM4 chip via amine coupling for presentation of the antibodies against human ANGPT2 and VEGF. […] Biacore T100 Evaluation Software version 1.1.1 was used for analysis of sensorgrams and for calculation of affinity data.

Test [2] deals with T2, human EGFR ECD (Extracellular Domain) (human, UniProt P00533 25-645).
T2 construct: extracellular domain; also called EGFR (HER1); HER1
Nature of the test: SPR (Biacore T100).
Excerpt: as §1, §2
In general terms: In SPR one partner is held on a chip, and binding of the other changes the refractive index at the surface.

T1 sequence (P15692 other isoform, or with tags, fused parts or gaps limits assumed): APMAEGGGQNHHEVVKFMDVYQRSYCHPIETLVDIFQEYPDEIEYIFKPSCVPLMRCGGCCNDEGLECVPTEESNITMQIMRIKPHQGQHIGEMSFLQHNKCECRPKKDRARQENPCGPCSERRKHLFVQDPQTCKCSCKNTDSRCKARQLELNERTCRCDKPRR

B1: trispecific and tetravalent antibody recognizing Angiopoietin-2, VEGF-A, and EGFR according to FIG. 5a (antibody, human IgG1, kappa)
light 1: QPGLTQPPSVSVAPGQTARITCGGNNIGSKSVHWYQQKPGQAPVLVVYDDSDRPSGIPERFSGSNSGNTATLTISRVEAGDEADYYCQVWDSSSDHYVFGTGTKVTVLRTVAAPSVFIFPPSDEQLKSGTASVVCLLNNFYPREAKVQWKVDNALQSGNSQESVTEQDSKDSTYSLSSTLTLSKADYEKHKVYACEVTHQGLSSPVTKSFNRGEC
heavy 1: not shown
light 2: DIQMTQSPSSLSASVGDRVTITCSASQDISNYLNWYQQKPGKAPKVLIYFTSSLHSGVPSRFSGSGSGTDFTLTISSLQPEDFATYYCQQYSTVPWTFGQGTKVEIKSSASTKGPSVFPLAPSSKSTSGGTAALGCLVKDYFPEPVTVSWNSGALTSGVHTFPAVLQSSGLYSLSSVVTVPSSSLGTQTYICNVNHKPSNTKVDKKVEPKSC
heavy 2: not shown
notes: Trispecific, tetravalent: four different chains, each once; CH1/CL (Ckappa) domain exchanged knobs-into-holes antibody; scFvs fused via a (G4S)4 connector; Expressed in HEK293F cells; also called trispecific antibody with disulfide stabilized scFv against EGFR on both heavy chains
As a reminder, the Kd is a measure of binding affinity in units of concentration. Lower therefore signals tighter binding. A word on the koff: it is the rate constant with which the complex falls apart. A higher koff goes with fast dissociation. What is called kon is the second-order rate constant of association. Read a low kon as slower complex formation. In test [1], B1 yielded a Kd of under 0.1 nM, a koff of under 1e-06 s⁻¹ and a kon of 100000 M⁻¹ s⁻¹. Besides, in test [2], binding was characterised by a dissociation constant (Kd) of 6 nM, the off-rate (koff) is 0.00023 s⁻¹ and the kon amounted to 47000 M⁻¹ s⁻¹.
